Assay results reported in the supplement of paper PMC7877785.
± gives the uncertainty stated by the source.

Assay: self-splicing fitness, log relative to wild type (ln ratio); higher = more splicing; Tetrahymena group I intron in knt gene, E. coli kanamycin selection, DiMSum; sequences stand for … in CUCUCU…GGAGGGAAAAGUUAUCAGGCAUGCACCUGGUAGCUAGUCUUUAAACCAAUAGAUUGCAUCGGUUUAAAAGGCAAGACCGUCAAAUUGCGGGAAAGGGGUCAACAGCCGUUCAGUACCAAGUCUCAGGGGAAACUUUGAGAUGGCCUUGCAAAGGGUAUGGUAAUAAGCUGACGGACAUGGUCCUAACCACGCAGCCAAGUCCUAAGUCAACAGAUCUUCUGUUGAUAUGGAUGCAGUUCACAGACUAAAUGUCGGUCGGGGAAGAUGUAUUCUUCUCAUAAGAUAUAGUCGGACCUCUCCUUAAUGGGAGCUAGCGGAUGAAGUGAUGCAACACUGGAGCCGCUGGGAACUAAUUUGUAUGCGAAAGUAUAUUGAUUAGUUUUGGAGUACUCGUGGUCG
Procedure, shortened: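 A randomised library covering all eight P1ex-region intron nucleotides was built with the intron in the knt kanamycin-resistance gene on pET-22b(+) and held in E. coli BL21(DE3). Cells were grown overnight at 37°C or 30°C on LB agar, with or without 25 μg/mL kanamycin, plus 100 μg/mL carbenicillin, 50 μM IPTG and 0.2% rhamnose, and pooled colonies were amplicon-sequenced on an Illumina HiSeq 2500. DiMSum fitness is the error-weighted combination of wild-type-normalised replicate fold changes, kanamycin versus none.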

| Sequence | self-splicing fitness (ln) (30 °C) | self-splicing fitness (ln) (37 °C) |
| --- | --- | --- |
| UGCUAGCAAUAUUACGAGCG | -2.86 ± 0.2 | -0.792 ± 0.17 |
| UGCUAGCAAUAUUACGAUCC | -0.317 ± 0.41 | – |
| UGCUAGCAAUAUUACGAUUG | -1.16 ± 0.13 | -1.51 ± 0.14 |
| UGCUAGCAAUAUUACGCCGG | -0.985 ± 0.22 | -1.88 ± 0.5 |
| UGCUAGCAAUAUUACGCGAG | -4.4 ± 0.39 | -2.11 ± 0.31 |
| UGCUAGCAAUAUUACGCGUA | -0.838 ± 0.11 | -0.531 ± 0.1 |
| UGCUAGCAAUAUUACGCGUG | -0.934 ± 0.074 | -0.462 ± 0.082 |
| UGCUAGCAAUAUUACGCUAU | -2.75 ± 0.21 | -0.801 ± 0.12 |
| UGCUAGCAAUAUUACGGAUG | -0.534 ± 0.086 | -0.268 ± 0.1 |
| UGCUAGCAAUAUUACGGCCG | -0.359 ± 0.12 | 0.337 ± 0.14 |
| UGCUAGCAAUAUUACGGUAC | – | -0.887 ± 0.39 |
| UGCUAGCAAUAUUACGUAAU | -2.42 ± 0.11 | -1.34 ± 0.13 |
| UGCUAGCAAUAUUACGUCCG | -0.00657 ± 0.11 | 0.18 ± 0.14 |
| UGCUAGCAAUAUUACGUCUA | -1.21 ± 0.11 | -0.84 ± 0.1 |
| UGCUAGCAAUAUUACGUGCC | – | -0.724 ± 0.3 |
| UGCUAGCAAUAUUACGUUAG | -3.08 ± 0.19 | -3.02 ± 0.33 |
| UGGAAGCAAUAUUACGAAAU | -3.52 ± 0.29 | -2.27 ± 0.22 |
| UGGAAGCAAUAUUACGAAGU | -3.57 ± 0.35 | – |
| UGGAAGCAAUAUUACGACUG | -1.26 ± 0.24 | -0.683 ± 0.24 |
| UGGAAGCAAUAUUACGAUCC | -2.44 ± 0.47 | -2.1 ± 0.41 |
| UGGAAGCAAUAUUACGAUGG | -2.38 ± 0.14 | -0.0527 ± 0.12 |
| UGGAAGCAAUAUUACGCACA | -1.44 ± 0.2 | 0.0258 ± 0.2 |
| UGGAAGCAAUAUUACGCAGG | -3.1 ± 0.42 | -1.47 ± 0.4 |
| UGGAAGCAAUAUUACGCCUA | 0.049 ± 0.092 | -0.109 ± 0.12 |
| UGGAAGCAAUAUUACGCGGU | -2.87 ± 0.17 | -2.69 ± 0.2 |

| Sequence | self-splicing fitness (ln) (30 °C) | self-splicing fitness (ln) (37 °C) |
| --- | --- | --- |
| UGGAAGCAAUAUUACGGACC | -0.695 ± 0.088 | -0.372 ± 0.11 |
| UGGAAGCAAUAUUACGGAGG | -2.93 ± 0.27 | -0.696 ± 0.15 |
| UGGAAGCAAUAUUACGGAUU | -1.49 ± 0.08 | -1.68 ± 0.12 |
| UGGAAGCAAUAUUACGUAAA | -2.28 ± 0.21 | 0.0471 ± 0.21 |
| UGGAAGCAAUAUUACGUCUC | – | -2.47 ± 0.32 |
| UGGAAGCAAUAUUACGUGCG | -0.442 ± 0.054 | 0.0701 ± 0.075 |
| UGGAAGCAAUAUUACGUGGA | -2.88 ± 0.16 | -0.926 ± 0.12 |
| UGGAAGCAAUAUUACGUUUA | -0.859 ± 0.072 | -0.47 ± 0.086 |
| UGGCAGCAAUAUUACGAAAC | – | -1.52 ± 0.32 |
| UGGCAGCAAUAUUACGAAUG | -0.811 ± 0.061 | 0.188 ± 0.079 |
| UGGCAGCAAUAUUACGACAA | -0.602 ± 0.14 | -0.308 ± 0.16 |
| UGGCAGCAAUAUUACGAGAA | -1.11 ± 0.32 | -1.62 ± 0.31 |
| UGGCAGCAAUAUUACGAGCG | -0.577 ± 0.12 | 0.0222 ± 0.17 |
| UGGCAGCAAUAUUACGAGCU | -1.98 ± 0.16 | -1.91 ± 0.19 |
| UGGCAGCAAUAUUACGAGGG | -3.44 ± 0.23 | -2.73 ± 0.25 |
| UGGCAGCAAUAUUACGAGUC | -2.79 ± 0.17 | -3.11 ± 0.23 |
| UGGCAGCAAUAUUACGCCCC | -1.11 ± 0.29 | -0.487 ± 0.36 |
| UGGCAGCAAUAUUACGCGCU | – | -2.45 ± 0.49 |
| UGGCAGCAAUAUUACGCUCG | -0.792 ± 0.083 | -0.0749 ± 0.11 |
| UGGCAGCAAUAUUACGCUUG | -2.46 ± 0.12 | -0.728 ± 0.15 |
| UGGCAGCAAUAUUACGGAGG | -2.38 ± 0.12 | -1.87 ± 0.15 |
| UGGCAGCAAUAUUACGGAUG | -1.79 ± 0.17 | -0.817 ± 0.19 |
| UGGCAGCAAUAUUACGGGGA | -2.26 ± 0.13 | -2.03 ± 0.14 |
| UGGCAGCAAUAUUACGGUGA | -0.428 ± 0.097 | 0.214 ± 0.12 |
